The values below come from patent publication US20200002431A1 (Seagen, published 2020).

B1: hSG16.17 vH2 vK5 (antibody, V domains shown)
VH: QVQLVQSGAEVKKPGASVKLSCKASGYTFTDYYMHWVRQAPGQGLEWIGRINPNSGYTNYAQKFQGRVTMTADKSINTAYVELSRLRSDDTAVYFCTRYMWERVTGFFDFWGQGTMVTVSS
VL: DIQMTQSPSSVSASVGDRVTITCRASEDISDDLAWYQQKSGKAPKVLVYTTSSLQSGVPSRFSGSGSGTDFTLTISSLQPEDFATYFCQQTYKFPPTFGGGTKVEIKR
notes: also called hSG16.17 8
B2: hSG16.17 vH2 vK2 (antibody, V domains shown)
VH: QVQLVQSGAEVKKPGASVKLSCKASGYTFTDYYMHWVRQAPGQGLEWIGRINPNSGYTNYAQKFQGRVTMTADKSINTAYVELSRLRSDDTAVYFCTRYMWERVTGFFDFWGQGTMVTVSS
VL: DIQMTQSPSSVSASVGDRVTITCLASEDISDDLAWYQQKPGKAPKVLVYTTSSLQSGVPSRFSGSGSGTDFTLTISSLQPEDFATYFCQQTYKFPPTFGGGTKVEIKR
notes: also called hSG16.17 5
B3: hSG16.17 vH2 vK3 (antibody, V domains shown)
VH: QVQLVQSGAEVKKPGASVKLSCKASGYTFTDYYMHWVRQAPGQGLEWIGRINPNSGYTNYAQKFQGRVTMTADKSINTAYVELSRLRSDDTAVYFCTRYMWERVTGFFDFWGQGTMVTVSS
VL: DIQMTQSPSSVSASVGDRVTITCRASEDISDDLAWYQQKPGKAPKVLVYTTSSLQSGVPSRFSGSGSGTDFTLTISSLQPEDFATYFCQQTYKFPPTFGGGTKVEIKR
notes: also called hSG16.17 6
B4: hSG16.17 vH2 vK4 (antibody, V domains shown)
VH: QVQLVQSGAEVKKPGASVKLSCKASGYTFTDYYMHWVRQAPGQGLEWIGRINPNSGYTNYAQKFQGRVTMTADKSINTAYVELSRLRSDDTAVYFCTRYMWERVTGFFDFWGQGTMVTVSS
VL: DIQMTQSPSSVSASVGDRVTITCLASEDISDDLAWYQQKPGKAPKVLVYTTSRLQSGVPSRFSGSGSGTDFTLTISSMQPEDFADYFCQQTYKFPPTFGGGTKVEIKR
notes: also called hSG16.17 7
B5: hSG16.17 vH1 vK2 (antibody, V domains shown)
VH: QVQLVQSRAEVKKPGASVKLSCKASGYTFTDYYIHWVRQAPGQGLEWIGYINPNSGYTKYNENFKTRATMTADKSINTAYVELSRLRSDDTAVYFCTRYMWERVTGFFDFWGQGTMVTVSS
VL: DIQMTQSPSSVSASVGDRVTITCLASEDISDDLAWYQQKPGKAPKVLVYTTSSLQSGVPSRFSGSGSGTDFTLTISSLQPEDFATYFCQQTYKFPPTFGGGTKVEIKR
notes: also called hSG16.17 1
B6: hSG16.17 vH5 vK4 (antibody, V domains shown)
VH: QVQLVQSGAEVKKPGASVKVSCKASGYTFTDYYIHWVRQAPGQGLEWIGYINPNSGYTKYNENFKTRATMTADKSTNTAYVELSSLRSEDTAVYFCTRYMWERVTGFFDFWGQGTMVTVSS
VL: DIQMTQSPSSVSASVGDRVTITCLASEDISDDLAWYQQKPGKAPKVLVYTTSRLQSGVPSRFSGSGSGTDFTLTISSMQPEDFADYFCQQTYKFPPTFGGGTKVEIKR
notes: also called hSG16.17 19
B7: hSG16.17 vH6 vK5 (antibody, V domains shown)
VH: QVQLVQSRAEVKKPGASVKLSCKASGYTFTDYYMHWVRQAPGQGLEWIGIINPNSGYTSYAQKFQGRVTMTADKSTNTAYVELSSLRSEDTAVYFCTRYMWERVTGFFDFWGQGTMVTVSS
VL: DIQMTQSPSSVSASVGDRVTITCRASEDISDDLAWYQQKSGKAPKVLVYTTSSLQSGVPSRFSGSGSGTDFTLTISSLQPEDFATYFCQQTYKFPPTFGGGTKVEIKR
notes: also called hSG16.17 24
B8: hSG16.17 vH6 vK2 (antibody, V domains shown)
VH: QVQLVQSRAEVKKPGASVKLSCKASGYTFTDYYMHWVRQAPGQGLEWIGIINPNSGYTSYAQKFQGRVTMTADKSTNTAYVELSSLRSEDTAVYFCTRYMWERVTGFFDFWGQGTMVTVSS
VL: DIQMTQSPSSVSASVGDRVTITCLASEDISDDLAWYQQKPGKAPKVLVYTTSSLQSGVPSRFSGSGSGTDFTLTISSLQPEDFATYFCQQTYKFPPTFGGGTKVEIKR
notes: also called hSG16.17 21
B9: hSG16.17 vH3 vK4 (antibody, V domains shown)
VH: QVQLVQSGAEVKKPGASVKLSCKASGYTFTDYYIHWVRQAPGQGLEWIGYINPNSGYTNYAQKFQGRATMTADKSINTAYVELSRLRSDDTAVYFCTRYMWERVTGFFDFWGQGTMVTVSS
VL: DIQMTQSPSSVSASVGDRVTITCLASEDISDDLAWYQQKPGKAPKVLVYTTSRLQSGVPSRFSGSGSGTDFTLTISSMQPEDFADYFCQQTYKFPPTFGGGTKVEIKR
notes: also called hSG16.17 11
B10: hSG16.17 vH1 vK4 (antibody, V domains shown)
VH: QVQLVQSRAEVKKPGASVKLSCKASGYTFTDYYIHWVRQAPGQGLEWIGYINPNSGYTKYNENFKTRATMTADKSINTAYVELSRLRSDDTAVYFCTRYMWERVTGFFDFWGQGTMVTVSS
VL: DIQMTQSPSSVSASVGDRVTITCLASEDISDDLAWYQQKPGKAPKVLVYTTSRLQSGVPSRFSGSGSGTDFTLTISSMQPEDFADYFCQQTYKFPPTFGGGTKVEIKR
notes: also called hSG16.17 3
B11: hSG16.17 vH1 vK3 (antibody, V domains shown)
VH: QVQLVQSRAEVKKPGASVKLSCKASGYTFTDYYIHWVRQAPGQGLEWIGYINPNSGYTKYNENFKTRATMTADKSINTAYVELSRLRSDDTAVYFCTRYMWERVTGFFDFWGQGTMVTVSS
VL: DIQMTQSPSSVSASVGDRVTITCRASEDISDDLAWYQQKPGKAPKVLVYTTSSLQSGVPSRFSGSGSGTDFTLTISSLQPEDFATYFCQQTYKFPPTFGGGTKVEIKR
notes: also called hSG16.17 2
B12: hSG16.17 vH5 vK2 (antibody, V domains shown)
VH: QVQLVQSGAEVKKPGASVKVSCKASGYTFTDYYIHWVRQAPGQGLEWIGYINPNSGYTKYNENFKTRATMTADKSTNTAYVELSSLRSEDTAVYFCTRYMWERVTGFFDFWGQGTMVTVSS
VL: DIQMTQSPSSVSASVGDRVTITCLASEDISDDLAWYQQKPGKAPKVLVYTTSSLQSGVPSRFSGSGSGTDFTLTISSLQPEDFATYFCQQTYKFPPTFGGGTKVEIKR
notes: also called hSG16.17 17
B13: hSG16.17 vH6 vK3 (antibody, V domains shown)
VH: QVQLVQSRAEVKKPGASVKLSCKASGYTFTDYYMHWVRQAPGQGLEWIGIINPNSGYTSYAQKFQGRVTMTADKSTNTAYVELSSLRSEDTAVYFCTRYMWERVTGFFDFWGQGTMVTVSS
VL: DIQMTQSPSSVSASVGDRVTITCRASEDISDDLAWYQQKPGKAPKVLVYTTSSLQSGVPSRFSGSGSGTDFTLTISSLQPEDFATYFCQQTYKFPPTFGGGTKVEIKR
notes: also called hSG16.17 22
B14: hSG16.17 vH3 vK3 (antibody, V domains shown)
VH: QVQLVQSGAEVKKPGASVKLSCKASGYTFTDYYIHWVRQAPGQGLEWIGYINPNSGYTNYAQKFQGRATMTADKSINTAYVELSRLRSDDTAVYFCTRYMWERVTGFFDFWGQGTMVTVSS
VL: DIQMTQSPSSVSASVGDRVTITCRASEDISDDLAWYQQKPGKAPKVLVYTTSSLQSGVPSRFSGSGSGTDFTLTISSLQPEDFATYFCQQTYKFPPTFGGGTKVEIKR
notes: also called hSG16.17 10
B15: hSG16.17 vH5 vK5 (antibody, V domains shown)
VH: QVQLVQSGAEVKKPGASVKVSCKASGYTFTDYYIHWVRQAPGQGLEWIGYINPNSGYTKYNENFKTRATMTADKSTNTAYVELSSLRSEDTAVYFCTRYMWERVTGFFDFWGQGTMVTVSS
VL: DIQMTQSPSSVSASVGDRVTITCRASEDISDDLAWYQQKSGKAPKVLVYTTSSLQSGVPSRFSGSGSGTDFTLTISSLQPEDFATYFCQQTYKFPPTFGGGTKVEIKR
notes: also called hSG16.17 20
B16: hSG16.17 vH6 vK4 (antibody, V domains shown)
VH: QVQLVQSRAEVKKPGASVKLSCKASGYTFTDYYMHWVRQAPGQGLEWIGIINPNSGYTSYAQKFQGRVTMTADKSTNTAYVELSSLRSEDTAVYFCTRYMWERVTGFFDFWGQGTMVTVSS
VL: DIQMTQSPSSVSASVGDRVTITCLASEDISDDLAWYQQKPGKAPKVLVYTTSRLQSGVPSRFSGSGSGTDFTLTISSMQPEDFADYFCQQTYKFPPTFGGGTKVEIKR
notes: also called hSG16.17 23
B17: hSG16.17 vH3 vK5 (antibody, V domains shown)
VH: QVQLVQSGAEVKKPGASVKLSCKASGYTFTDYYIHWVRQAPGQGLEWIGYINPNSGYTNYAQKFQGRATMTADKSINTAYVELSRLRSDDTAVYFCTRYMWERVTGFFDFWGQGTMVTVSS
VL: DIQMTQSPSSVSASVGDRVTITCRASEDISDDLAWYQQKSGKAPKVLVYTTSSLQSGVPSRFSGSGSGTDFTLTISSLQPEDFATYFCQQTYKFPPTFGGGTKVEIKR
notes: also called hSG16.17 12
B18: hSG16.17 vH5 vK3 (antibody, V domains shown)
VH: QVQLVQSGAEVKKPGASVKVSCKASGYTFTDYYIHWVRQAPGQGLEWIGYINPNSGYTKYNENFKTRATMTADKSTNTAYVELSSLRSEDTAVYFCTRYMWERVTGFFDFWGQGTMVTVSS
VL: DIQMTQSPSSVSASVGDRVTITCRASEDISDDLAWYQQKPGKAPKVLVYTTSSLQSGVPSRFSGSGSGTDFTLTISSLQPEDFATYFCQQTYKFPPTFGGGTKVEIKR
notes: also called hSG16.17 18
B19: hSG16.17 vH1 vK5 (antibody, V domains shown)
VH: QVQLVQSRAEVKKPGASVKLSCKASGYTFTDYYIHWVRQAPGQGLEWIGYINPNSGYTKYNENFKTRATMTADKSINTAYVELSRLRSDDTAVYFCTRYMWERVTGFFDFWGQGTMVTVSS
VL: DIQMTQSPSSVSASVGDRVTITCRASEDISDDLAWYQQKSGKAPKVLVYTTSSLQSGVPSRFSGSGSGTDFTLTISSLQPEDFATYFCQQTYKFPPTFGGGTKVEIKR
notes: also called hSG16.17 4

The target of the first experiment is T1, human BCMA (B-cell maturation antigen, CD269) expressed on cells (human, UniProt Q02223 1-184).
T1 construct: Endogenous on myeloma lines (NCI-H929, U266, JJN3) or a full-length clone transfected into HEK 293 cells; also called hBCMA; BCMA expressed on NCI-H929 cells
T1 sequence: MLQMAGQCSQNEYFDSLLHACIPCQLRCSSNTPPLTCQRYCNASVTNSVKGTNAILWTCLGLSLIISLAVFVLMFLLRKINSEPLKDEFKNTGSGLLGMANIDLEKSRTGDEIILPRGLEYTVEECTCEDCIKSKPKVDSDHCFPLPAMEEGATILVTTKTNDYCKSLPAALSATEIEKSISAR
The experiment can be described thus: cell binding, U266 cells, full range of concentration points.
For the molecule B1, the binding result is “binds”.

For the molecule B2, the binding result is “binds”.

Turning to B3, the binding result is reported as “binds”.

On to B4, for which the binding result was “binds”.

A further experiment deals with T1, human BCMA (B-cell maturation antigen, …). The experiment can be described thus: cell binding, NCI-H929 cells expressing BCMA, 3-pt assay. Here is the method:
The six humanized heavy chains and four humanized light chains were tested in all 24 possible permutations for binding to BCMA expressed on NCI-H929 cells, which express about 50,000 molecules of BCMA per cell.
For the molecule B5, the binding result is on record as “binds”.

As for B6, the binding result is “binds”.

For the molecule B7, the binding result was “binds”.

Consider B8, for which the binding result is on record as “binds”.

For B9, the binding result is given as “binds”.

With B10, the binding result was “binds”.

Regarding B11, the binding result was “binds”.

With B12, the binding result is reported as “binds”.

With B13, the binding result is on record as “binds”.

With B14, the binding result is “binds”.

With B15, the binding result is recorded as “binds”.

Regarding B16, the binding result was “binds”.

In the case of B17, the binding result is “binds”.

As to B18, the binding result is listed as “binds”.

Take B19: the binding result is “binds”.
